Molecular target: T1, Gpr158 (Mus musculus, UniProt Q8C419)
T1 sequence (Q8C419 25-1200): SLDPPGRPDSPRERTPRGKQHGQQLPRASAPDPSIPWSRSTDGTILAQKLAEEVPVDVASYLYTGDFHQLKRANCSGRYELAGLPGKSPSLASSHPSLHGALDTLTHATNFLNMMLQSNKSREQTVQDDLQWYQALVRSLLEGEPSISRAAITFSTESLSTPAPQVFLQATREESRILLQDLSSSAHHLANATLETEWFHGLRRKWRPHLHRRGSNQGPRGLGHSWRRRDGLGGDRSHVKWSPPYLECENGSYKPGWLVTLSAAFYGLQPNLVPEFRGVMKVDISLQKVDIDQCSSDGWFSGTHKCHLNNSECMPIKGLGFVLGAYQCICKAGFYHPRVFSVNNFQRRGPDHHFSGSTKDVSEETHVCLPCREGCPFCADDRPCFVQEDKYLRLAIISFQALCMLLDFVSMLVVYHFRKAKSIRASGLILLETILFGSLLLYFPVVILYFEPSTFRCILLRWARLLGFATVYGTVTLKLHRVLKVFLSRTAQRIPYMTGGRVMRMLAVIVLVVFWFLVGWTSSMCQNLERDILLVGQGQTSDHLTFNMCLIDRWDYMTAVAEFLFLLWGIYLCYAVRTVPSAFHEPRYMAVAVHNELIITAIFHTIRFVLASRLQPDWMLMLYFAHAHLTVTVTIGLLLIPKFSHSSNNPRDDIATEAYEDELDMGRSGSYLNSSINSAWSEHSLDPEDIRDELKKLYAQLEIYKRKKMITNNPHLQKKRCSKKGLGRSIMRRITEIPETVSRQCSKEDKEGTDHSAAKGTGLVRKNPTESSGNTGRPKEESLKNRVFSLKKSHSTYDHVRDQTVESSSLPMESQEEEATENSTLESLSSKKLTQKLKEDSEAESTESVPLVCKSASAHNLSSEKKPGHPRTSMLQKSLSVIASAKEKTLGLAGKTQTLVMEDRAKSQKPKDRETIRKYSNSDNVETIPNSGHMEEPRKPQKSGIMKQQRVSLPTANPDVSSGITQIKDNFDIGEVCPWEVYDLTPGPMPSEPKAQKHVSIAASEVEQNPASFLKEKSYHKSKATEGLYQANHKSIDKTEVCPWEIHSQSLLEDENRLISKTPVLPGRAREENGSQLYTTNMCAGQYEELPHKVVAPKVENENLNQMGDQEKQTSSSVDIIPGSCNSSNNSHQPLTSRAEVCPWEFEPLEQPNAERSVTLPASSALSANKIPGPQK
Experiment: Hippocampal lentiviral sh-Gpr158 knockdown followed by osteocalcin injection, NOR and CFC
Type: in vivo
Design: from tissue; host or cells: anterior hippocampus of living 3-month-old C57BL/6J male mice
Procedure: Mice were anesthetized with intra-peritoneal injection of […] (Rompun 2%; Bayer) and placed in a stereotaxic frame (900SL-KOPF). Ophthalmic eye ointment was applied to the cornea to prevent desiccation during surgery. The area around the incision was trimmed and Vetedine solution (Vetoquinol) was appplied. Lentiviruses expressing shRNA targeting Gpr158 or non-effective scramble shRNA in pGFP-C-shLentiVector were injected bilaterally into the anterior hippocampi using the following coordinates: (from bregma) anterior=−2.0 mm, lateral=+/−1.4 mm and height=-1.33 mm. Coordinates were determined using the Mouse Brain in Stereotaxic Coordinates (Paxinos and Franklin, 2008). Two weeks later, osteocalcin (10 ng) or NaCl were injected using the same coordinates. […]
Novel object recognition test (NOR): The NOR paradigm assesses the rodent's ability to recognize a novel object in the environment. […] These objects elicit equal levels of exploration as determined in pilot experiments (Denny, C. A., et al., 2012, Hippocampus 22:1188-1201; Oury, F., et al., 2013, Cell 155:228-241). […] Preference for the novel object is assessed based on the fraction of time that a mouse spends exploring the novel object compared to the familiar object. Exploration is scored from video recordings of each exposure and recorded using the Stopwatch program. […]

memory performance (NOR) (control (scrambled shRNA) mice, osteocalcin 10 ng in anterior hippocampus): enhanced memory performance | contextual fear conditioning (CFC) (sh-control vs sh-Gpr158 mice, osteocalcin 10 ng): A similar result was obtained
Substance: osteocalcin: Recombinant osteocalcin bacterially produced, cleaved from the GST subunit; completely undercarboxylated at all three sites; full-length mouse osteocalcin (YLGASVPSPDPLEPTREQCELNPACDELSDQYGLKTAYKRIYGITI)

Reference: US20200069775A1, “BRAIN OSTEOCALCIN RECEPTOR AND COGNITIVE DISORDERS” (The Trustees of Columbia University in the City of New York, priority 2017, published 2020)
